B1: PPO13A: nucleotide sequence encoding microbial protoporphyrinogen oxidase PPO13 (SEQ ID NO:13), Arabidopsis thaliana/soybean common codon usage bias (nucleic acid)
DNA: ATGGCTAAAGCTCTTTTCCTGTACTCATCTAGAGAAGGACAAACAAAGAAGATTCTTCATTACATAGACGAGAAGTTAACTGGGTTTGAGTGTGAACTCGTTGATTTGCACAATGTCGAAACTATTGATTTTTCTCAGTATGATAGAGTCTTAATTGGAGCGTCCATACGATATGGTCATCTCAACAAGAAATTATATCAGTTTATCGACCGTAACCTGAACCAGCTAGAGCAAAGCAAGGTAGCTTTCTTCTGCGTGAATCTCACCGCACGGAAAGAGGATCAAGGAAAAGATACTCCTGAAGGCTCAGCTTACATAAGGAAGTTTCTTATCAAATCGCCTTGGAAACCGACATTGATTGGTGTTTTCGCAGGTGCACTTTACTATCCAAGATATGGGTGGTTTGATAAAACAATGATCAAATTCATCATGAGTATGACTGGTGGAGAAACCGACACGACCAAGGAAGTTGAGTACACAAATTGGGAAAAAGTGGCCTTGTTTGCTGATAAGTTCAAGGAGCTATGA
modifications: The nucleotide sequence of PPO13A
B2: PPO14A: nucleotide sequence encoding microbial protoporphyrinogen oxidase PPO14 (SEQ ID NO:14), Arabidopsis thaliana/soybean common codon usage bias (nucleic acid)
DNA: ATGTCTAACAAGGCCTTGCTGCTCTATAGTACAAGAGAAGGTCAAACTAAAAAGATTCTTCAGTACATAGACAAAGAGCTTCATGATTACCAATGTGATTATGTCGATCTTCACACAATGCCTATAGAGATTGATTTCTCTGGTTATGATAAAGTTTTGGTAGGGGCGTCCATCCGGTATGGACATTTAAACAAAAAACTTTACAGATTCATCGAGAGGTACAAAGCAGAGTTGAAGGATAATAATGCTGCTTTCTTCTGCGTCAATCTAACCGCAAGGAAAGAACAACAAGGAAAAGATACTCCTGAAGGATCAGCTTATATTCAGACTTTTCTCAAGAAGTCTCCATGGCAGCCAGCATTGATAGGTGTTTTTGCTGGAGCTTTACGTTACCCGAAGTATAGATGGTTTGACAAGATGATGATTCGACTAATCATGACTATGACGGGCGGTGAAACCGACACATCAAAGGAAGTGGAGTATACAAATTGGAAGAAAGTGAGCCTCTTTGTTGAAAACTGGCAAAAGCAGTGA
modifications: The nucleotide sequence of PPO14A

Experiments:
Assay type in all cases: in vivo
Conditions in all cases: 7 DAT, number of plants of 24 per genotype, grades
[1] = test system: Arabidopsis thaliana T1 plants; assay: flumioxazin tolerance of transgenic Arabidopsis thaliana T1 plants (spray, grade of pesticide damage)
Summary of the method: (§1)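 Saflufenacil (25, 100 g ai/ha), sulfentrazone (450, 900), flumioxazin (60, 240) and oxyfluorfen (180, 720) or water were sprayed on 18-day-old PPO-transgenic T1 plants, control-vector and wild-type plants, 24 per genotype. Seven days later, damage was graded: 0 as in water controls, 1 <10% injured leaf area, 3 100%.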

[2] = test system: Arabidopsis thaliana T1 plants; assay: oxyfluorfen tolerance of transgenic Arabidopsis thaliana T1 plants (spray, grade of pesticide damage)
Summary of the method: as §1

[3] = test system: Arabidopsis thaliana T1 plants; assay: saflufenacil tolerance of transgenic Arabidopsis thaliana T1 plants (spray, grade of pesticide damage)
Summary of the method: as §1

[4] = test system: Arabidopsis thaliana T1 plants; assay: sulfentrazone tolerance of transgenic Arabidopsis thaliana T1 plants (spray, grade of pesticide damage)
Summary of the method: as §1

Molecule | The grade of pesticide damage/plant: grade 0 ([1]; flumioxazin 60 g ai/ha (1×)) [plant] | The grade of pesticide damage/plant: grade 1 ([1]; flumioxazin 60 g ai/ha (1×)) [plant] | The grade of pesticide damage/plant: grade 2 ([1]; flumioxazin 60 g ai/ha (1×)) [plant] | The grade of pesticide damage/plant: grade 3 ([1]; flumioxazin 60 g ai/ha (1×)) [plant] | The grade of pesticide damage/plant: grade 0 ([1]; flumioxazin 240 g ai/ha (4×)) [plant] | The grade of pesticide damage/plant: grade 1 ([1]; flumioxazin 240 g ai/ha (4×)) [plant] | The grade of pesticide damage/plant: grade 2 ([1]; flumioxazin 240 g ai/ha (4×)) [plant] | The grade of pesticide damage/plant: grade 3 ([1]; flumioxazin 240 g ai/ha (4×)) [plant] | The grade of pesticide damage/plant: grade 0 ([2]; oxyfluorfen 180 g ai/ha (1×)) [plant] | The grade of pesticide damage/plant: grade 1 ([2]; oxyfluorfen 180 g ai/ha (1×)) [plant] | The grade of pesticide damage/plant: grade 2 ([2]; oxyfluorfen 180 g ai/ha (1×)) [plant] | The grade of pesticide damage/plant: grade 3 ([2]; oxyfluorfen 180 g ai/ha (1×)) [plant] | The grade of pesticide damage/plant: grade 0 ([2]; oxyfluorfen 720 g ai/ha (4×)) [plant] | The grade of pesticide damage/plant: grade 1 ([2]; oxyfluorfen 720 g ai/ha (4×)) [plant] | The grade of pesticide damage/plant: grade 2 ([2]; oxyfluorfen 720 g ai/ha (4×)) [plant] | The grade of pesticide damage/plant: grade 3 ([2]; oxyfluorfen 720 g ai/ha (4×)) [plant] | The grade of pesticide damage/plant: grade 0 ([3]; saflufenacil 25 g ai/ha (1×)) [plant] | The grade of pesticide damage/plant: grade 1 ([3]; saflufenacil 25 g ai/ha (1×)) [plant] | The grade of pesticide damage/plant: grade 2 ([3]; saflufenacil 25 g ai/ha (1×)) [plant] | The grade of pesticide damage/plant: grade 3 ([3]; saflufenacil 25 g ai/ha (1×)) [plant] | further results
B1 | 24 | 0 | 0 | 0 | 19 | 5 | 0 | 0 | 24 | 0 | 0 | 0 | 18 | 6 | 0 | 0 | 24 | 0 | 0 | 0 | The grade of pesticide damage/plant: grade 0 ([3]; saflufenacil 100 g ai/ha (4×)): 0 plant; The grade of pesticide damage/plant: grade 1 ([3]; saflufenacil 100 g ai/ha (4×)): 24 plant; The grade of pesticide damage/plant: grade 2 ([3]; saflufenacil 100 g ai/ha (4×)): 0 plant; The grade of pesticide damage/plant: grade 3 ([3]; saflufenacil 100 g ai/ha (4×)): 0 plant; The grade of pesticide: grade 0 ([4]; sulfentrazone 450 g ai/ha (1×)): 24; The grade of pesticide: grade 1 ([4]; sulfentrazone 450 g ai/ha (1×)): 0; The grade of pesticide: grade 2 ([4]; sulfentrazone 450 g ai/ha (1×)): 0; The grade of pesticide: grade 3 ([4]; sulfentrazone 450 g ai/ha (1×)): 0; The grade of pesticide: grade 0 ([4]; sulfentrazone 900 g ai/ha (2×)): 23; The grade of pesticide: grade 1 ([4]; sulfentrazone 900 g ai/ha (2×)): 1; The grade of pesticide: grade 2 ([4]; sulfentrazone 900 g ai/ha (2×)): 0; The grade of pesticide: grade 3 ([4]; sulfentrazone 900 g ai/ha (2×)): 0
B2 | 24 | 0 | 0 | 0 | 19 | 5 | 0 | 0 | 24 | 0 | 0 | 0 | 20 | 4 | 0 | 0 | 24 | 0 | 0 | 0 | The grade of pesticide damage/plant: grade 0 ([3]; saflufenacil 100 g ai/ha (4×)): 0 plant; The grade of pesticide damage/plant: grade 1 ([3]; saflufenacil 100 g ai/ha (4×)): 24 plant; The grade of pesticide damage/plant: grade 2 ([3]; saflufenacil 100 g ai/ha (4×)): 0 plant; The grade of pesticide damage/plant: grade 3 ([3]; saflufenacil 100 g ai/ha (4×)): 0 plant; The grade of pesticide: grade 0 ([4]; sulfentrazone 450 g ai/ha (1×)): 24; The grade of pesticide: grade 1 ([4]; sulfentrazone 450 g ai/ha (1×)): 0; The grade of pesticide: grade 2 ([4]; sulfentrazone 450 g ai/ha (1×)): 0; The grade of pesticide: grade 3 ([4]; sulfentrazone 450 g ai/ha (1×)): 0; The grade of pesticide: grade 0 ([4]; sulfentrazone 900 g ai/ha (2×)): 19; The grade of pesticide: grade 1 ([4]; sulfentrazone 900 g ai/ha (2×)): 5; The grade of pesticide: grade 2 ([4]; sulfentrazone 900 g ai/ha (2×)): 0; The grade of pesticide: grade 3 ([4]; sulfentrazone 900 g ai/ha (2×)): 0

Reference: patent publication US20240200091A1, “USE OF PROTOPORPHYRINOGEN OXIDASE” (BEIJING DABEINONG BIOTECHNOLOGY CO., LTD., priority 2021, published 2024)
